The source of these data is patent US20240287154A1, “MC3R AGONIST PEPTIDES” (The Regents of the University of Michigan, priority 2021, published 2024).

To fix the notation:
B1: CTX-1125 (peptide)
peptide: YVXAHFRWDRFG
modifications: D-Tyr at 1; Nle at 3; D-Ala at 4; D-Trp at 8
B2: CTX-1110 (peptide)
peptide: Ac-SGHFR[dW]D-NH2
B3: CTX-1107 (peptide)
peptide: H-YV[Nle]GH[dF]R[dW]D-NH2
SMILES: CCCC[C@H](NC(=O)[C@@H](NC(=O)[C@@H](N)Cc1ccc(O)cc1)C(C)C)C(=O)NCC(=O)N[C@@H](Cc1c[nH]cn1)C(=O)N[C@H](Cc1ccccc1)C(=O)N[C@@H](CCCNC(=N)N)C(=O)N[C@H](Cc1c[nH]c2ccccc12)C(=O)N[C@@H](CC(=O)O)C(N)=O
B4: CTX-1121 (peptide)
peptide: Ac-V[Nle][dA]HFR[dW]DRFG-OH
SMILES: CCCC[C@H](NC(=O)[C@@H](NC(C)=O)C(C)C)C(=O)N[C@H](C)C(=O)N[C@@H](Cc1c[nH]cn1)C(=O)N[C@@H](Cc1ccccc1)C(=O)N[C@@H](CCCNC(=N)N)C(=O)N[C@H](Cc1c[nH]c2ccccc12)C(=O)N[C@@H](CC(=O)O)C(=O)N[C@@H](CCCNC(=N)N)C(=O)N[C@@H](Cc1ccccc1)C(=O)NCC(=O)O
B5: CTX-1106 (peptide)
peptide: H-YVE[dA]H[dF]R[dW]DRFG-OH
SMILES: CC(C)[C@H](NC(=O)[C@@H](N)Cc1ccc(O)cc1)C(=O)N[C@@H](CCC(=O)O)C(=O)N[C@H](C)C(=O)N[C@@H](Cc1c[nH]cn1)C(=O)N[C@H](Cc1ccccc1)C(=O)N[C@@H](CCCNC(=N)N)C(=O)N[C@H](Cc1c[nH]c2ccccc12)C(=O)N[C@@H](CC(=O)O)C(=O)N[C@@H](CCCNC(=N)N)C(=O)N[C@@H](Cc1ccccc1)C(=O)NCC(=O)O
B6: CTX-1112 (peptide)
peptide: Ac-TGHFR[dW]D-NH2
SMILES: CC(=O)N[C@H](C(=O)NCC(=O)N[C@@H](Cc1c[nH]cn1)C(=O)N[C@@H](Cc1ccccc1)C(=O)N[C@@H](CCCNC(=N)N)C(=O)N[C@H](Cc1c[nH]c2ccccc12)C(=O)N[C@@H](CC(=O)O)C(N)=O)[C@@H](C)O
B7: CTX-1104 (peptide)
peptide: YVXAHFRWDRFG
modifications: Nle at 3; D-Ala at 4; D-Phe at 6; D-Trp at 8
B8: CTX-1109 (peptide)
peptide: H-YV[Nle][dA]H[dF]R[dW]D-NH2
SMILES: CCCC[C@H](NC(=O)[C@@H](NC(=O)[C@@H](N)Cc1ccc(O)cc1)C(C)C)C(=O)N[C@H](C)C(=O)N[C@@H](Cc1c[nH]cn1)C(=O)N[C@H](Cc1ccccc1)C(=O)N[C@@H](CCCNC(=N)N)C(=O)N[C@H](Cc1c[nH]c2ccccc12)C(=O)N[C@@H](CC(=O)O)C(N)=O
B9: CTX-1111 (peptide)
peptide: Ac-SGH[dF]R[dW]D-NH2
SMILES: CC(=O)N[C@@H](CO)C(=O)NCC(=O)N[C@@H](Cc1c[nH]cn1)C(=O)N[C@H](Cc1ccccc1)C(=O)N[C@@H](CCCNC(=N)N)C(=O)N[C@H](Cc1c[nH]c2ccccc12)C(=O)N[C@@H](CC(=O)O)C(N)=O

Non-standard residues stand in square brackets, D forms with d. Nle = CCCC[C@H](N)C(=O)O

The target of the assay is human MC3R (human, UniProt P41968 1-323). Description: cell-based or functional assay.
Chain of human MC3R (P41968 whole entry): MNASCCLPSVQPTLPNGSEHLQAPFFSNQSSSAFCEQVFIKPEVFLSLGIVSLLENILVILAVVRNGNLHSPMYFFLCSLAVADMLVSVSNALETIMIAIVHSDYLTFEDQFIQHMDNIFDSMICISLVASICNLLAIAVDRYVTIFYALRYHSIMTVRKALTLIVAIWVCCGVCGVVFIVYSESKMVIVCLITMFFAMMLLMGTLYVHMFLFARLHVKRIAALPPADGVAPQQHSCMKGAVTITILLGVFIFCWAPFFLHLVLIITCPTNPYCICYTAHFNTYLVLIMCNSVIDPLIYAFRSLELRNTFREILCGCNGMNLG
For B1, the “MC3R cAMP (EC50)” value was found to be 1.7 nM and the “MC3R selectivity (relative to MC4R)” value came out at 747.

B2: the “MC3R cAMP (EC50)” value was found to be 7400 nM.

Take B3: the “MC3R cAMP (EC50)” value worked out at 4.4 nM and the “MC3R selectivity (relative to MC4R)” value was 2.4.

In the case of B4, the “MC3R cAMP (EC50)” value was 3.1 nM and the “MC3R selectivity (relative to MC4R)” value is 2120.

For the molecule B5, the “MC3R cAMP (EC50)” value is 5.8 nM and the “MC3R selectivity (relative to MC4R)” value was 120.

As for B6, the “MC3R cAMP (EC50)” value is 4090 nM and the “MC3R selectivity (relative to MC4R)” value amounted to 8.6.

For the molecule B7, the “MC3R cAMP (EC50)” value was 3.5 nM and the “MC3R selectivity (relative to MC4R)” value is 27.

Regarding B8, the “MC3R cAMP (EC50)” value turned out to be 13.1 nM and the “MC3R selectivity (relative to MC4R)” value is 10.6.

As to B9, the “MC3R cAMP (EC50)” value turned out to be 17100 nM and the “MC3R selectivity (relative to MC4R)” value stood at 0.1.
